# T1: Neisseria gonorrhoeae BamE (NgBamE) with a C-terminal 10x histidine tag (N. gonorrhoeae FA1090, UniProt Q5F5Y8 18-125)
# T1 sequence (looked up): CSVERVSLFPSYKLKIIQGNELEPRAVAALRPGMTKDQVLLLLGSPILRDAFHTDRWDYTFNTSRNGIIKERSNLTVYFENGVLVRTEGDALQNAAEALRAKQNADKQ
# Target: T1, Neisseria gonorrhoeae BamE (NgBamE) …
# Test: co-purification
row,Binder,stoichiometry N
1,"Neisseria gonorrhoeae BamC (NgBamC), with the HG2 domain (natural protein, N. gonorrhoeae FA1090, UniProt A0ACH0F7W2 42-398, looked up) CSGSKTEQPKLDYQSRSHRLIKLEVPPDLNNPDQGNLYRLPAGSGAVRASDLEKRRTPAVQQPADAEVLKSVKGVRLERDGSQRWLVVDGKSPAEIWPLLKAFWQENGFDIESEEPAIGQMETEWAENRAKIPQDSLRRLFDTVGLGGIYSTGERDKFIVRIEQGKNGVSDIFFAHKAMKEVYGDKNKDTTMWQPSASDPNLEAAFLTRFMQYLGVDGRQAENALAKKPTLPAANEMARIEGKSLIVFGDYGRNWRRTGLALDRIGLTVVGQNTERHAFLVQKAPNESNAVTEQKPGLFKRLLGKGKAEKPAEQPELIVYAEPVADGSRIVLLNKDGSAYAGKDASALLGKLHSELR",1
2,"Neisseria gonorrhoeae BamD (NgBamD) (natural protein, N. gonorrhoeae FA1090, UniProt Q50985 17-267, looked up) CATQGTADKDAQITQDWSVEKLYAEAQDELNSSNYTRAVKLYEILESRFPTSRHARQSQLDTAYAYYKDDEKDKALAAIERFRRLHPQHPNMDYALYLRGLVLFNEDQSFLNKLASQDWSDRDPKANREAYQAFAELVQRFPNSKYAADATARMVKLVDALGGNEMSVARYYMKRGAYIAAANRAKKIIGSYQNTRYVEESLAILELAYKKLDKPQLAADTRRVLETNFPKSPFLTHAWQPDDMPWWRYWH",1
3,Neisseria gonorrhoeae BamA (NgBamA) (natural protein) FTIQDIRVEGLQRTEPSTVFNYLPVKVGDTYNDTHGSAIIKSLYATGFFDDVRVETADGQLLLTVIERPTIGSLNITGAKMLQNDAIKKNLESFGLAQSQYFNQATLNQAVAGLKEEYLGRGKLNIQITPKVTKLARNRVDIDITIDEGKSAKITDIEFEGNQVYSDRKLMRQMSLTEGGIWTWLTRSDRFDRQKFAQDMEKVTDFYQNNGYFDFRILDTDIQTNEDKTRQTIKITVHEGGRFRWGKVSIEGDTNEVPKAELEKLLTMKPGKWYERQQMTAVLGEIQNRMGSAGYAYSEISVQPLPNAGTKTVDFVLHIEPGRKIYVNEIHITGNNKTRDEVVRRELRQMESAPYDTSKLQRSKERVELLGYFDNVQFDAVPLAGTPDKVDLNMSLTERSTGSLDLSAGWVQDTGLVMSAGVSQDNLFGTGKSAALRASRSKTTLNGSLSFTDPYFTADGVSLGYDIYGKAFDPRKASTSVKQYKTTTAGGGVRMGIPVTEYDRVNFGLAAEHLTVNTYNKAPKRYADFIRKYGKTDGADGSFKGLLYKGTVGWGRNKTDSASWPTRGYLTGVNAEIALPGSKLQYYSATHNQTWFFPLSKTFTLMLGGEVGIAGGYGRTKEIPFFENFYGGGLGSVRGYESGTLGPKVYDEYGEKISYGGNKKANVSAELLFPMPGAKDARTVRLSLFADAGSVWDGRTYTAAENGNNKSVYSENAHKSTFTNELRYSAGGAVTWLSPLGPMKFSYAYPLKKKPEDEIQRFQFQLGTTF,1
